# Legend:
# [1] = tested on: CCn1c(=NN=c2sc3cc(S(=O)(=O)O)ccc3n2CC)sc2cc(S(=O)(=O)O)ccc21; assay: purified protein; conditions: 1.5 mM H2O2, 100 mM sodium acetate, pH 4.3, 25 °C, variant 29E4
# [2] = biological target: PpDyP variant 6E10 (E188K/A142V/H125Y) (Pseudomonas putida MET94); assay: crystal structure
Substance,Km [1] [µM],stoichiometry N [2]
PpDyP (Pseudomonas putida KT2440; E188K/H125Y),810 ± 190,
PpDyP variant 6E10 (E188K/A142V/H125Y) (enzyme),,4

# Source: publication PMC9334217
